What all share (assay): co-sedimentation
Experiment [1] deals with 28S small mitoribosome subunit (mtSSU) (human (endogenous in HEK293T or 143B)).
Experiment [2] has as its target 55S monosome (human (endogenous in HEK293T or 143B)).
Experiment [3] deals with 39S large mitoribosome subunit (mtLSU) (human (endogenous in HEK293T or 143B)).

Regarding “GTPBP10 (endogenous in 143B, isoform 2) (natural protein)”, the percent of total GTPBP10 that co-sediments in experiment [1] is 10%; in experiment [2] it was 1 to 2%; in experiment [3], 10%.
As for “GTPBP10 (endogenous in HEK293T, isoform 1) (from UniProt A4D1E9-1 1-387) (natural protein)”, the results for the percent of total GTPBP10 that co-sediments in experiment [1], in experiment [2] and in experiment [3] were 10%, 1 to 2% and 10%, respectively.

The record behind these values is PMC6265488.
